Test results reported in patent US20260242419A1, “A CYCLIC PEPTIDE FOR TRAPPING INTERLEUKIN-1 BETA” (Merck Sharp & Dohme LLC, priority 2023, published 2026).
Starred links: 1 amine or outer side, 2 acyl side, 3 side chain; linkers in the order of their positions; H or OH if unused. Non-standard residues stand in square brackets, D forms with d. Primed or numbered codes have the meaning given here. dProc4CH21Naph4F = (2R,4R)-4-[(4-fluoro-1-naphthyl)methyl]pyrrolidine-2-carboxylic acid, O=C([C@H]1C[C@@H](Cc2ccc(F)c3ccccc23)CN1[*:1])[*:2]; dProc3Bn4Cl = (2R,3S)-3-[(4-chlorophenyl)methyl]pyrrolidine-2-carboxylic acid, O=C([C@H]1[C@@H](Cc2ccc(Cl)cc2)CCN1[*:1])[*:2]; dProc4Bn4Cl = (2R,4R)-4-[(4-chlorophenyl)methyl]pyrrolidine-2-carboxylic acid, O=C([C@H]1C[C@@H](Cc2ccc(Cl)cc2)CN1[*:1])[*:2]; AEFBz = (S)-2-amino-3-(4-(2-benzamidoethoxy)phenyl)propanoic acid, O=C(NCCOc1ccc(C[C@H](N[*:1])C(=O)[*:2])cc1)c1ccccc1; TyrEtNAc = (2S)-3-[4-(2-acetamidoethoxy)phenyl]-2-amino-propanoic acid, CC(=O)NCCOc1ccc(C[C@H](N[*:1])C(=O)[*:2])cc1; dProc3CH24Pal = (2R,3S)-3-(4-pyridylmethyl)pyrrolidine-2-carboxylic acid, O=C([C@H]1[C@@H](Cc2ccncc2)CCN1[*:1])[*:2]; DabMe3 = [(3S)-3-amino-4-oxo-butyl]-trimethyl-ammonium, C[N+](C)(C)CC[C@H](N[*:1])C(=O)[*:2]; 4PyrimAla = (2S)-2-amino-3-pyrimidin-4-yl-propanoic acid, O=C([C@H](Cc1ccncn1)N[*:1])[*:2]; Ala3Isoxa5Me = 3-(5-methylisoxazol-3-yl)alanine, Cc1cc(C[C@H](N[*:1])C(=O)[*:2])no1; 4PyrimAla″ = 3-(pyrimidin-4-yl)alanine, O=C([C@H](Cc1ccncn1)N[*:1])[*:2]; Ala2Oxa = 3-(oxazol-2-yl)alanine, O=C([C@H](Cc1ncco1)N[*:1])[*:2]; dPro(4R-(4-pyridylmethyl)) = O=C(O)[C@H]1C[C@@H](Cc2ccncc2)CN1; Ala(piperidin-4-yl) = O=C([C@H](CC1CCN([*:3])CC1)N[*:1])[*:2]; Trp(βS-Me,4-F) = C[C@@H](c1c[nH]c2cccc(F)c12)[C@H](N)C(=O)O; Bip(4'-COOH) = N[C@@H](Cc1ccc(-c2ccc(C(=O)O)cc2)cc1)C(=O)O; dPro(4R-Bzl(4-F)) = O=C(O)[C@H]1C[C@@H](Cc2ccc(F)cc2)CN1; dPro(3S-(4-F-Bn)) = O=C(O)[C@@H]1NCC[C@@H]1Cc1ccc(F)cc1; Ala(morpholin-4-yl) = N[C@@H](CN1CCOCC1)C(=O)O; Ala(pyrimidin-5-yl) = N[C@@H](Cc1cncnc1)C(=O)O; Phe(4-COOH) = N[C@@H](Cc1ccc(C(=O)O)cc1)C(=O)O; Phe(4-tBu) = CC(C)(C)c1ccc(C[C@H](N)C(=O)O)cc1; Ala(4-Pyridazinyl) = N[C@@H](Cc1ccnnc1)C(=O)O; Ala(2-pyrazinyl) = N[C@@H](Cc1cnccn1)C(=O)O; Bip = N[C@@H](Cc1ccc(-c2ccccc2)cc1)C(=O)O; Phe(3-Cl) = N[C@@H](Cc1cccc(Cl)c1)C(=O)O; Pro(cis-4-F) = O=C(O)[C@@H]1C[C@H](F)CN1; Ala(4-THP) = N[C@@H](CC1CCOCC1)C(=O)O; cisHyp = O=C(O)[C@@H]1C[C@H](O)CN1; d(αMeD) = C[C@@](N)(CC(=O)O)C(=O)O; h4Pal = N[C@@H](CCc1ccncc1)C(=O)O; 3Pal = N[C@@H](Cc1cccnc1)C(=O)O; 4Pal = N[C@@H](Cc1ccncc1)C(=O)O; Dab = NCC[C@H](N)C(=O)O; Aib = CC(C)(N)C(=O)O

B1: SEQ ID NO 312 (peptide)
peptide: cyclo([Bip(4'-COOH)][4Pal][Phe(4-COOH)]G[Pro(cis-4-F)][Trp(βS-Me,4-F)][Aib]EW[Aib][4PyrimAla″]Q[Dab]G[dPro(3S-(4-F-Bn))])
modifications: ring closure inferred; not fully specified (N-terminus); printed as cyclic, Bip4CO2H-4Pal-Phe4COOH-G-Proc4F-SbMeW4F-Aib-E-W-Aib-4PyrimAla-Q-Dab-G-dProc3Bn4F
B2: SEQ ID NO 311 (peptide)
peptide: cyclo([Phe(4-tBu)][4Pal][Phe(4-COOH)]G[Pro(cis-4-F)][Trp(βS-Me,4-F)][Aib]EW[Aib][Ala(pyrimidin-5-yl)]Q[Dab]G[dPro(4R-(4-pyridylmethyl))])
modifications: ring closure inferred; not fully specified (N-terminus); printed as cyclic, Phe4tButyl-4Pal-Phe4COOH-G-Proc4F-SbMeW4F-Aib-E-W-Aib-PyrimAla-Q-Dab-G-dProc4CH24Pal
B3: SEQ ID NO 308 (peptide)
peptide: cyclo([AEFBz][4Pal][Phe(4-COOH)]G[Pro(cis-4-F)][Trp(βS-Me,4-F)][Aib]SW[Aib][Ala(pyrimidin-5-yl)]Q[Dab]G[dPro(4R-(4-pyridylmethyl))])
modifications: ring closure inferred; not fully specified (N-terminus); printed as cyclic, AEFBz-4Pal-Phe4COOH-G-Proc4F-SbMeW4F-Aib-S-W-Aib-PyrimAla-Q-Dab-G-dProc4CH24Pal
B4: SEQ ID NO 313 (peptide)
peptide: cyclo([Bip(4'-COOH)][4Pal][Phe(4-COOH)]G[Pro(cis-4-F)][Trp(βS-Me,4-F)][Aib]SW[d(αMeD)][Ala(4-THP)]Q[Dab]G[dPro(4R-Bzl(4-F))])
modifications: ring closure inferred; not fully specified (N-terminus); printed as cyclic, Bip4CO2H-4Pal-Phe4COOH-G-Proc4F-SbMeW4F-Aib-S-W-daMeD-AlaTHP4-Q-Dab-G-dProc4Bn4F
B5: SEQ ID NO 314 (peptide)
peptide: cyclo([Bip(4'-COOH)][4Pal][Phe(4-COOH)]G[Pro(cis-4-F)][Trp(βS-Me,4-F)][Aib]SW[Aib][DabMe3]Q[Dab]G[dPro(4R-Bzl(4-F))])
modifications: ring closure inferred; not fully specified (N-terminus); printed as cyclic, Bip4CO2H-4Pal-Phe4COOH-G-Proc4F-sbMeW4F-Aib-S-W-Aib-DabMe3-Q-Dab-G-dProc4Bn4F

molecular target: Recombinant human IL-1β (BioLegend 579404) (human, UniProt P01584 117-269); experiment: cell-based or functional assay

| MRC5 IC50 | Binder |
| --- | --- |
| 0.018 nM | cyclo([TyrEtNAc][4Pal][Phe(4-COOH)]G[Pro(cis-4-F)][Trp(βS-Me,4-F)][Aib]EW[Aib][Phe(3-Cl)]Q[Dab]G[dPro(4R-(4-pyridylmethyl))]) (ring closure inferred; not fully specified (N-terminus)) [SEQ ID NO 309] |
| 0.015 nM | cyclo([Bip(4'-COOH)][4Pal][Phe(4-COOH)]G[Pro(cis-4-F)][Trp(βS-Me,4-F)][Aib]SW[d(αMeD)][Ala(piperidin-4-yl)]Q[Dab]G[dPro(4R-Bzl(4-F))]) (ring closure inferred) [SEQ ID NO 320] |
| 0.018 nM | cyclo([TyrEtNAc][4Pal][Phe(4-COOH)]G[Pro(cis-4-F)][Trp(βS-Me,4-F)][Aib]EW[Aib][Ala3Isoxa5Me]Q[Dab]G[dPro(4R-(4-pyridylmethyl))]) (ring closure inferred; not fully specified (N-terminus)) [SEQ ID NO 315] |
| 0.027 nM | cyclo([Bip(4'-COOH)][4Pal][Phe(4-COOH)]G[cisHyp][Trp(βS-Me,4-F)][Aib]SW[Aib][Ala(pyrimidin-5-yl)]Q[Dab]G[dProc3CH24Pal]) (ring closure inferred) [SEQ ID NO 325] |
| 0.017 nM | B1 |
| 0.015 nM | cyclo([TyrEtNAc][4Pal][Phe(4-COOH)]G[Pro(cis-4-F)][Trp(βS-Me,4-F)][Aib]EW[Aib]HQ[Dab]G[dPro(4R-(4-pyridylmethyl))]) (ring closure inferred) [SEQ ID NO 317] |
| 0.015 nM | cyclo([Bip(4'-COOH)][4Pal][Phe(4-COOH)]G[Pro(cis-4-F)][Trp(βS-Me,4-F)][Aib]SW[d(αMeD)][Ala(2-pyrazinyl)]Q[Dab]G[dPro(4R-Bzl(4-F))]) (ring closure inferred) [SEQ ID NO 321] |
| 0.022 nM | cyclo([Bip][4Pal][Phe(4-COOH)]G[Pro(cis-4-F)][Trp(βS-Me,4-F)][Aib]SW[d(αMeD)][Ala(pyrimidin-5-yl)]Q[Dab]G[dPro(4R-(4-pyridylmethyl))]) (ring closure inferred) [SEQ ID NO 333] |
| 0.017 nM | B2 |
| 0.017 nM | cyclo([Bip(4'-COOH)][4Pal][Phe(4-COOH)]G[Pro(cis-4-F)][Trp(βS-Me,4-F)][Aib]SW[d(αMeD)][Ala(morpholin-4-yl)]Q[Dab]G[dPro(4R-Bzl(4-F))]) (ring closure inferred) [SEQ ID NO 319] |
| 0.013 nM | cyclo([Bip(4'-COOH)][4Pal][Phe(4-COOH)]G[Pro(cis-4-F)][Trp(βS-Me,4-F)][Aib]SW[d(αMeD)][4Pal]Q[Dab]G[dPro(4R-Bzl(4-F))]) (ring closure inferred) [SEQ ID NO 324] |
| 0.013 nM | cyclo([Bip(4'-COOH)][4Pal][Phe(4-COOH)]G[Pro(cis-4-F)][Trp(βS-Me,4-F)][Aib]SW[d(αMeD)][Ala(4-Pyridazinyl)]Q[Dab]G[dPro(4R-Bzl(4-F))]) (ring closure inferred) [SEQ ID NO 322] |
| 0.013 nM | cyclo([Bip(4'-COOH)][4Pal][Phe(4-COOH)]G[Pro(cis-4-F)][Trp(βS-Me,4-F)][Aib]SW[d(αMeD)][4PyrimAla]Q[Dab]G[dPro(4R-Bzl(4-F))]) (ring closure inferred) [SEQ ID NO 332] |
| 0.013 nM | B3 |
| 0.008 nM | cyclo([Bip(4'-COOH)][4Pal][Phe(4-COOH)]G[Pro(cis-4-F)][Trp(βS-Me,4-F)][Aib]SW[d(αMeD)][Ala(pyrimidin-5-yl)]Q[Dab]G[dProc3Bn4Cl]) (ring closure inferred) [SEQ ID NO 330] |
| 0.025 nM | cyclo([TyrEtNAc][4Pal][Phe(4-COOH)]G[Pro(cis-4-F)][Trp(βS-Me,4-F)][Aib]EW[Aib][h4Pal]Q[Dab]G[dPro(4R-(4-pyridylmethyl))]) (ring closure inferred) [SEQ ID NO 318] |
| 0.009 nM | cyclo([Bip(4'-COOH)][4Pal][Phe(4-COOH)]G[Pro(cis-4-F)][Trp(βS-Me,4-F)][Aib]SW[d(αMeD)][Ala(pyrimidin-5-yl)]Q[Dab]G[dProc4Bn4Cl]) (ring closure inferred) [SEQ ID NO 329] |
| 0.011 nM | cyclo([Bip(4'-COOH)][4Pal][Phe(4-COOH)]G[Pro(cis-4-F)][Trp(βS-Me,4-F)][Aib]SW[d(αMeD)][Ala(pyrimidin-5-yl)]Q[Dab]G[dPro(3S-(4-F-Bn))]) (ring closure inferred) [SEQ ID NO 331] |
| 0.012 nM | cyclo([Bip(4'-COOH)][4Pal][Phe(4-COOH)]G[Pro(cis-4-F)][Trp(βS-Me,4-F)][Aib]SW[d(αMeD)][3Pal]Q[Dab]G[dPro(4R-Bzl(4-F))]) (ring closure inferred) [SEQ ID NO 323] |
| 0.008 nM | cyclo([Bip(4'-COOH)][4Pal][Phe(4-COOH)]G[Pro(cis-4-F)][Trp(βS-Me,4-F)][Aib]SW[d(αMeD)][Ala(pyrimidin-5-yl)]Q[Dab]G[dProc3CH24Pal]) (ring closure inferred) [SEQ ID NO 328] |
| 0.015 nM | B4 |
| 0.02 nM | B5 |
| 0.011 nM | cyclo([Bip(4'-COOH)][4Pal][Phe(4-COOH)]G[Pro(cis-4-F)][Trp(βS-Me,4-F)][Aib]SW[Aib][Ala(pyrimidin-5-yl)]Q[Dab]G[dProc3CH24Pal]) (ring closure inferred) [SEQ ID NO 326] |
| 0.02 nM | cyclo([TyrEtNAc][4Pal][Phe(4-COOH)]G[Pro(cis-4-F)][Trp(βS-Me,4-F)][Aib]EW[Aib][Ala2Oxa]Q[Dab]G[dPro(4R-(4-pyridylmethyl))]) (ring closure inferred; not fully specified (N-terminus)) [SEQ ID NO 316] |
| 0.017 nM | cyclo([TyrEtNAc][4Pal][Phe(4-COOH)]G[Pro(cis-4-F)][Trp(βS-Me,4-F)][Aib]EW[Aib]YQ[Dab]G[dPro(4R-(4-pyridylmethyl))]) (ring closure inferred; not fully specified (N-terminus)) [SEQ ID NO 310] |
| 0.016 nM | cyclo([Bip(4'-COOH)][4Pal][Phe(4-COOH)]G[Pro(cis-4-F)][Trp(βS-Me,4-F)][Aib]SW[d(αMeD)][Ala(pyrimidin-5-yl)]Q[Dab]G[dProc4CH21Naph4F]) (ring closure inferred) [SEQ ID NO 327] |
